Laboratory results taken from patent US20240182536A1 (MURAL ONCOLOGY, published 2024).

Columns and labels:
[1] = biological target: T1, interleukin 18 binding protein (IL-18BP) (UniProt O95998 31-194); experiment: cell-based or functional assay
T1 sequence (looked up): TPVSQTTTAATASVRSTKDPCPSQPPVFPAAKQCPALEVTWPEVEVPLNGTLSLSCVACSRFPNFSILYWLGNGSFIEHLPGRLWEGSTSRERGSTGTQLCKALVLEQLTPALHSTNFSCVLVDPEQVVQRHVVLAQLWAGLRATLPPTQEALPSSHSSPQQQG

[2] = biological target: T2, IL-18 receptors on HEK-Blue IL-18 reporter cells (UniProt Q13478 19-541; O95256 20-599, limits assumed); experiment: cell-based or functional assay
T2 sequence (looked up) 1: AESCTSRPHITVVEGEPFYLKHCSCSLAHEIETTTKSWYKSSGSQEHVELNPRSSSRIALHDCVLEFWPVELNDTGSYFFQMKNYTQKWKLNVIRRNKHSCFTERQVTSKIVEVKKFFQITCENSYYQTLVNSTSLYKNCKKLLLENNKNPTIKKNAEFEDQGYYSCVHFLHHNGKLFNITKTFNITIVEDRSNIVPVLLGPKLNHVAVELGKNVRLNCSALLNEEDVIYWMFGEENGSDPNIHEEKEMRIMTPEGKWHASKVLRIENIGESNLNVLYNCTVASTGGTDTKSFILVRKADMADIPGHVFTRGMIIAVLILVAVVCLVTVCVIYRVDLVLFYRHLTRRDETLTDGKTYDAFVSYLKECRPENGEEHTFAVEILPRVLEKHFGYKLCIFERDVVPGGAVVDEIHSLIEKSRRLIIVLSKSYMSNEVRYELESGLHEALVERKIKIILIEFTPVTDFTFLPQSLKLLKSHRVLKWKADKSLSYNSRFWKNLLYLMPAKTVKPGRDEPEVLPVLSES
T2 sequence (looked up) 2: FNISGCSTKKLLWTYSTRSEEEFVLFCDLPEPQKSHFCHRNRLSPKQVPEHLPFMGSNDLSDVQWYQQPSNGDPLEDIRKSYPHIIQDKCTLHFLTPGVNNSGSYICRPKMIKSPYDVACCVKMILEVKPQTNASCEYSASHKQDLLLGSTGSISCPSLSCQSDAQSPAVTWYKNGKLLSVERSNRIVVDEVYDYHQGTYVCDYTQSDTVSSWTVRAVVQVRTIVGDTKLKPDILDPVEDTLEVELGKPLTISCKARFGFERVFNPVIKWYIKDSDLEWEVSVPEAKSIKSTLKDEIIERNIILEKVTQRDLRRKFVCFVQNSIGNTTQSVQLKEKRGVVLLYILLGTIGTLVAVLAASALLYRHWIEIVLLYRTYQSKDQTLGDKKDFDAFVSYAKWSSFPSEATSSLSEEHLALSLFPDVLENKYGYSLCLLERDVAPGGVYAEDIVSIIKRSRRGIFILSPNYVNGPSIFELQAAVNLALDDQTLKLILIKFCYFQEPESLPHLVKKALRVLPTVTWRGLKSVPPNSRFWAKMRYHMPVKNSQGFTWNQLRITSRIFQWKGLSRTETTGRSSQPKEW

Binder	HEK-Blue activity, +100 nM BP, DF-10000 [1]	HEK-Blue activity, +100 nM BP, DF-100,000 [1]	HEK-Blue activity, +100 nM BP, DF-1,000,000 [1]	Ratio (-BP/+BP), DF-10000 [1]	Ratio (-BP/+BP), DF-100,000 [1]	Ratio (-BP/+BP), DF-1,000,000 [1]	HEK-Blue activity, No BP, DF-10000 [2]	HEK-Blue activity, No BP, DF-100,000 [2]	HEK-Blue activity, No BP, DF-1,000,000 [2]
IL-18 variant K53G, S55V, R104Y, H109N (ligand) YFGKLESKLSVIRNLNDQVLFIDQGNRPLFEDMTDSDMRDNAPRTIFIISMYGDVQPRGMAVTISVKSEKISTLSSENKIISFKEMNPPDNIKDTKSDIIFFQYSVPGNDNKMQFESSSYEGYFLASEKERDLFKLILKKEDELGDRSIMFTVQNED	0.11	0.14	0.1	1.17	0.9	1.02	0.13	0.12	0.1
IL-18 variant T34N, S36Y, D40H, N41T, K53G, S55Y (ligand) YFGKLESKLSVIRNLNDQVLFIDQGNRPLFEDMNDYDMRHTAPRTIFIISMYGDYQPRGMAVTISVKSEKISTLSSENKIISFKEMNPPDNIKDTKSDIIFFQRSVPGHDNKMQFESSSYEGYFLASEKERDLFKLILKKEDELGDRSIMFTVQNED	0.11	0.09	0.09	1.08	1.02	0.97	0.12	0.1	0.09
IL-18 variant K53D, S55L (ligand) YFGKLESKLSVIRNLNDQVLFIDQGNRPLFEDMTDSDMRDNAPRTIFIISMYDDLQPRGMAVTISVKSEKISTLSSENKIISFKEMNPPDNIKDTKSDIIFFQRSVPGHDNKMQFESSSYEGYFLASEKERDLFKLILKKEDELGDRSIMFTVQNED	0.1	0.09	0.09	1.02	1.03	1.01	0.11	0.09	0.09
IL-18 variant K53H, S55Y, Q56H (ligand) YFGKLESKLSVIRNLNDQVLFIDQGNRPLFEDMTDSDMRDNAPRTIFIISMYHDYHPRGMAVTISVKSEKISTLSSENKIISFKEMNPPDNIKDTKSDIIFFQRSVPGHDNKMQFESSSYEGYFLASEKERDLFKLILKKEDELGDRSIMFTVQNED	0.12	0.09	0.09	1.05	1.03	0.96	0.12	0.1	0.09
IL-18 variant T34S, S36L, D37E, D40Y, N41M, K53T, S55K, P107K, H109Q (ligand) YFGKLESKLSVIRNLNDQVLFIDQGNRPLFEDMSDLEMRYMAPRTIFIISMYTDKQPRGMAVTISVKSEKISTLSSENKIISFKEMNPPDNIKDTKSDIIFFQRSVKGQDNKMQFESSSYEGYFLASEKERDLFKLILKKEDELGDRSIMFTVQNED	0.1	0.1	0.09	1.11	0.98	0.98	0.11	0.1	0.09
IL-18 variant K53N, S55H, H109F (ligand) YFGKLESKLSVIRNLNDQVLFIDQGNRPLFEDMTDSDMRDNAPRTIFIISMYNDHQPRGMAVTISVKSEKISTLSSENKIISFKEMNPPDNIKDTKSDIIFFQRSVPGFDNKMQFESSSYEGYFLASEKERDLFKLILKKEDELGDRSIMFTVQNED	0.11	0.09	0.09	1.17	1.06	1.17	0.13	0.1	0.1
IL-18 variant L15I, K53H, S55M (ligand) YFGKLESKLSVIRNINDQVLFIDQGNRPLFEDMTDSDMRDNAPRTIFIISMYHDMQPRGMAVTISVKSEKISTLSSENKIISFKEMNPPDNIKDTKSDIIFFQRSVPGHDNKMQFESSSYEGYFLASEKERDLFKLILKKEDELGDRSIMFTVQNED	0.12	0.1	0.08	0.9	0.99	1.02	0.11	0.1	0.09
IL-18 variant T34N, S36Y, D37E, D40Q, N41Q, K53D, S55D (ligand) YFGKLESKLSVIRNLNDQVLFIDQGNRPLFEDMNDYEMRQQAPRTIFIISMYDDDQPRGMAVTISVKSEKISTLSSENKIISFKEMNPPDNIKDTKSDIIFFQRSVPGHDNKMQFESSSYEGYFLASEKERDLFKLILKKEDELGDRSIMFTVQNED	0.1	0.1	0.09	1.11	0.96	1	0.11	0.09	0.09
IL-18 variant K53G, S55I, R104K, P107Y (ligand) YFGKLESKLSVIRNLNDQVLFIDQGNRPLFEDMTDSDMRDNAPRTIFIISMYGDIQPRGMAVTISVKSEKISTLSSENKIISFKEMNPPDNIKDTKSDIIFFQKSVYGHDNKMQFESSSYEGYFLASEKERDLFKLILKKEDELGDRSIMFTVQNED	0.11	0.09	0.09	0.99	1	0.95	0.1	0.09	0.09
IL-18 variant K53L, S55G (ligand) YFGKLESKLSVIRNLNDQVLFIDQGNRPLFEDMTDSDMRDNAPRTIFIISMYLDGQPRGMAVTISVKSEKISTLSSENKIISFKEMNPPDNIKDTKSDIIFFQRSVPGHDNKMQFESSSYEGYFLASEKERDLFKLILKKEDELGDRSIMFTVQNED	0.14	0.11	0.11	0.87	0.92	0.89	0.12	0.1	0.09
IL-18 variant K53H, S55H, N87D, H109I (ligand) YFGKLESKLSVIRNLNDQVLFIDQGNRPLFEDMTDSDMRDNAPRTIFIISMYHDHQPRGMAVTISVKSEKISTLSSENKIISFKEMDPPDNIKDTKSDIIFFQRSVPGIDNKMQFESSSYEGYFLASEKERDLFKLILKKEDELGDRSIMFTVQNED	0.1	0.1	0.1	1.1	0.96	0.88	0.11	0.1	0.09
IL-18 variant K53H, S55R (ligand) YFGKLESKLSVIRNLNDQVLFIDQGNRPLFEDMTDSDMRDNAPRTIFIISMYHDRQPRGMAVTISVKSEKISTLSSENKIISFKEMNPPDNIKDTKSDIIFFQRSVPGHDNKMQFESSSYEGYFLASEKERDLFKLILKKEDELGDRSIMFTVQNED	0.12	0.09	0.09	0.97	1.09	1	0.12	0.1	0.09
